The values that follow come from article doi:10.1101/2022.10.14.512271.

The target in data set [1] is lac repressor M42I/K84L (IhL) (UniProt P03023 1-360, M42I;K84L). Nature of the data set: fluorescence anisotropy.
The target of data set [2] is lac repressor M42I (Ihk) (UniProt P03023 1-360, M42I). Nature of the data set: fluorescence anisotropy. In general terms: Fluorescence polarisation rises when a labelled molecule tumbles more slowly, as on binding a larger partner.
Chain of lac repressor M42I (Ihk) (P03023 whole entry M42I): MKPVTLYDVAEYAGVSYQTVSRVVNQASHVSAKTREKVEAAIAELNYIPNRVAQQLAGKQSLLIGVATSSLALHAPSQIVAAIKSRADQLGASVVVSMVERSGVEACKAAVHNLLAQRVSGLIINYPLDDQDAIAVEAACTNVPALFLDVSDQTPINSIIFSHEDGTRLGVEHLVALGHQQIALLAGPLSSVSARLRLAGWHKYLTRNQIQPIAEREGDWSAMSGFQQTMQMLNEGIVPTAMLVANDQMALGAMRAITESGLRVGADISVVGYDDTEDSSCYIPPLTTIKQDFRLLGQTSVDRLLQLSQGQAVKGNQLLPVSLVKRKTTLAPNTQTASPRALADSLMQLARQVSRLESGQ

Chain of lac repressor M42I/K84L (IhL) (P03023 whole entry M42I/K84L): as the sequence (P03023 whole entry M42I) above, with K84L counted along it

B1: FI-Oid (18-mer operator) (dsDNA)
DNA 1: ATTGTGAGCGCTCACAAT
DNA 2: ATTGTGAGCGCTCACAAT
Consider B1, for which the binding result in data set [1] and in data set [2] was “binds” each time.
